Assay results from patent US20210347908A1 (ELPISCIENCE SUZHOU BIOPHARMA, published 2021).
Positions count from the first letter of the chain named. Like-named read-outs stand apart in the source and are kept apart here. Values belong to the binder of their own block, whether it stands above or below them.

Assays:
[1] = target: T1, Fc tagged human SIRPβ ECD recombinant protein (human, UniProt O00241 30-371); test: ELISA
T1 construct: range 1-371; cloned range includes the signal peptide; also called hSIRPβ; not shown: human IgG Fc region (hFc) of the pCPC vector
Procedure, shortened: (§1)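 Fc-tagged human SIRP ECD proteins were coated on plates and incubated with purified antibodies at 37 °C for 1 h, then with HRP anti-mouse or anti-human IgG at 37 °C for 1 h. TMB was developed 15 min at room temperature and stopped with 1N HCl. EC₅₀ was calculated from OD 450 nm.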

[2] = target: T2, Fc tagged human SIRPα v2 ECD recombinant protein (human); test: ELISA
T2 construct: range 1-369; cloned range M1-R369 includes the signal peptide; also called hSIRPα V2
Procedure, shortened: as §1

[3] = target: T3, biotin labeled soluble human SIRPα v1 ECD recombinant protein (human, UniProt P78324 31-373, biotin labeled); test: competitive ELISA, biotin-SIRPα v1 ECD to coated CD47 ECD
T3 construct: extracellular domain
Procedure: Competitive ELISA assay was used to determine whether the purified hybridoma antibodies can block CD47 and SIRPα interaction or CD47 and SIRPγ interaction. Briefly, for CD47 and SIRPα interaction blocking activity detection, antibody and biotin labeled soluble human SIRPα v1 ECD recombinant protein were co-incubated with ELISA microplate coated human CD47 ECD recombinant protein.
For CD47 and SIRPγ interaction blocking activity detection, antibody and biotin labeled soluble human CD47 ECD recombinant protein were co-incubated with ELISA microplate coated human SIRPγ ECD recombinant protein. After washing, horseradish peroxidase labeled streptavidin (HRP-SA, Sigma) was added and incubated at 37° C. for 1 hour. Then, 100 μl/well of TMB solution (Biotechnology) was added. After incubation for 15 minutes at room temperature, the reaction was stopped by the addition of 50 μl of 1N HCl. OD 450 nm was read. Blocking ratio and IC₅₀ was calculated. In comparison with other known anti-SIRPα antibodies, 022, 050, 055, and 074 cannot block CD47 and SIRPα interaction. In particular, all of the antibodies of the invention cannot block CD47 and SIRPγ interaction.

[4] = target: T1, Fc tagged human SIRPβ ECD recombinant …; test: ELISA; remark: listed apart in the source
Procedure: (§2) Binding specificity of the purified hybridoma antibodies against SIRP family members was detected by ELISA assay using recombinant proteins of Fc tagged human SIRPα v1 ECD, human SIRPα v2 ECD, human SIRPβ ECD and human SIRPγ ECD. Briefly the antibodies were incubated with ELISA microplate coated antigens at 37° C. for 1 hour. After washing, horseradish peroxidase (HRP) labeled anti-mouse or anti-human IgG 2nd Ab (Sigma) was added and incubated at 37° C. for 1 hour. Then, 100 μl/well of TMB solution (Biotechnology) was added. After incubation for 15 minutes at room temperature, the reaction was stopped by the addition of 50 μl of 1N HCl. OD 450 nm was read and EC₅₀ was calculated. Other than 060 and HEFLB, all of the antibodies as tested can bind with both human SIRPα v1 and SIRPα v2. 060 and HEFLB can bind with human SIRPα v1 but not v2. Other than 055, all of the antibodies as tested can bind with human SIRPβ. In comparison with other known anti-SIRPα antibodies, only 022, 035 and 050 can bind with human SIRPγ weakly.

[5] = target: T2, Fc tagged human SIRPα v2 ECD …; test: ELISA; remark: listed apart in the source
Procedure: as §2

[6] = target: T4, Fc tagged human SIRPα v1 ECD recombinant protein (human, UniProt P78324 31-370); test: ELISA
T4 construct: range 1-370; cloned range M1-R370 includes the signal peptide; also called hSIRPα V1; not shown: human IgG Fc region (hFc) of the pCPC vector
Procedure: as §2

[7] = target: T1, Fc tagged human SIRPβ ECD recombinant …; test: ELISA; remark: listed apart in the source
Procedure, shortened: as §1

[8] = target: T2, Fc tagged human SIRPα v2 ECD …; test: ELISA; remark: listed apart in the source
Procedure, shortened: as §1

[9] = target: T3, biotin labeled soluble human SIRPα v1 …; test: competitive ELISA; competitor 050
Procedure: (§3) Competitive ELISA assay was used for epitope binning of 9 functional antibodies. Briefly excessive competitor antibody and biotin labeled soluble human SIRPα v1 ECD recombinant protein were co-incubated with ELISA microplate coated antibody. After washing, HRP-SA was added and incubated at 37° C. for 1 hour. Then, […] of TMB solution (Biotechnology) was added. After incubation for 15 minutes at room temperature, the reaction was stopped by the addition of […] of 1N HCl. OD 450 nm was read. Competition ratio was calculated. The antibodies that can compete each other for binding to SIRPα have the similar binding epitope.

[10] = target: T3, biotin labeled soluble human SIRPα v1 …; test: competitive ELISA; competitor 035
Procedure: as §3

[11] = target: T3, biotin labeled soluble human SIRPα v1 …; test: competitive ELISA; competitor 022
Procedure: as §3

[12] = target: T3, biotin labeled soluble human SIRPα v1 …; test: competitive ELISA; competitor 001
Procedure: as §3

[13] = target: T3, biotin labeled soluble human SIRPα v1 …; test: competitive ELISA; competitor 29-AM4-5
Procedure: as §3

[14] = target: T3, biotin labeled soluble human SIRPα v1 …; test: competitive ELISA; competitor 055
Procedure: as §3

[15] = target: T3, biotin labeled soluble human SIRPα v1 …; test: competitive ELISA; competitor HEFLB
Procedure: as §3

B2: Antibody 060 (hybridoma antibody) (antibody, V domains shown)
VH: QVQLKESGPGLVAPSESLSITCTVSGFSLTNYDISWIRQSPGKGLEWLGVIWTGGDTNFNSAFMSRLSISKDKSKSQVFLKLNSLQTDDTAIYYCVRVQYFGGSYGPMDYWGQGISVTVSS
VL: DIQMTQASSYLSVSLGGRVTITCEASDHINDWLAWYQQTPGNAPRLLISGATSLETGVPSRFSGSGSGKDYTLSITSLQTEDIATYYCQQYWNTPLTFGAGTRLELK
notes: mouse hybridoma antibody
IC50 [3]: > 1000 nM
EC50 [4]: 0.04 nM
EC50 [6]: 0.03 nM
% Competition [9]: 14%
% Competition [10]: 3%
% Competition [11]: 10%
% Competition [12]: 0%
% Competition [13]: -5%
% Competition [14]: 7%
% Competition [15]: -3%

B3: Antibody 035 (hybridoma antibody) (antibody, V domains shown)
VH: QIQLVQSGPELRKPGETVKISCKASGYSFTNYAMNWVKQAPGKVLKWMGFINTYTGEPTYADDFKGRFAFSLETSASTAYLQINNLKNEDTATYFCTRTRGYYDFDGGAFDYWGQGTSLTVSS
VL: DIVMTQSQKFMSTSIGDRVSVTCKASQNVGTHLAWYQQKPGQSPKALIFSASYRYIGVPDRFTGSGSGTDFTLTITNVQSEDLAEYFCQQYNTYPLTFGAGTKLELK
notes: mouse hybridoma antibody
IC50 [3]: 4.9 nM
EC50 [4]: 0.02 nM
EC50 [5]: 0.04 nM
EC50 [6]: 0.03 nM
% Competition [9]: -3%
% Competition [10]: 93%
% Competition [11]: -1%
% Competition [12]: 92%
% Competition [13]: 50%
% Competition [14]: -1%
% Competition [15]: 2%

B5: Antibody 001 (hybridoma antibody) (antibody, V domains shown)
VH: EVKLEESGGGLVQPGGSMKLSCVASGFTFRNYWMNWVRQSPERGLEWIAEISLKSNTYATHYAESVKGRFAISRDGSKSSFYLQMNDLRAEDTGIYYCTTFTKVVADWHLDVWGAGTTVTVSS
VL: DVLMTQTPLSLPVSLGDQASISCRSSQNIVHSNGNTYLEWYLQKPGQSPKLLIYKVSNRFSGVPDRFSGSGSGTDFTLRISRVEAEDLGVYYCFQGSHVPFTFGSGTKLEIK
notes: mouse hybridoma antibody
IC50 [3]: 1.4 nM
EC50 [4]: 0.12 nM
EC50 [5]: 0.07 nM
EC50 [6]: 0.07 nM
% Competition [9]: 5%
% Competition [10]: 96%
% Competition [11]: -19%
% Competition [12]: 96%
% Competition [13]: 92%
% Competition [14]: 4%
% Competition [15]: 36%

B6: Antibody 002 (hybridoma antibody) (antibody, V domains shown)
VH: B5 VH with K19I, S52T, G76D, A90P
VL: B5 VL with V56I, K112Q
notes: mouse hybridoma antibody
IC50 [3]: 1.3 nM
EC50 [4]: 0.16 nM
EC50 [5]: 0.1 nM
EC50 [6]: 0.11 nM
% Competition [9]: -13%
% Competition [10]: 93%
% Competition [11]: -5%
% Competition [12]: 94%
% Competition [13]: 87%
% Competition [14]: -16%
% Competition [15]: 7%

B8: reference antibody 29-AM4-5 (antibody, V domains shown)
VH: EVQLVESGGGLVQPGGSLRLSCAASGFNISYYFIHWVRQAPGKGLEWVASVYSSFGYTYYADSVKGRFTISADTSKNTAYLQMNSLRAEDTAVYYCARFTFPGLFDGFFGAYLGSLDYWGQGTLVTVSS
VL: DIQMTQSPSSLSASVGDRVTITCRASQSVSSAVAWYQQKPGKAPKLLIYSASSLYSGVPSRFSGSRSGTDFTLTISSLQPEDFATYYCQQAVNWVGALVTFGQGTKVEIK
EC50 [1]: 0.08 nM
EC50 [2]: 0.08 nM
IC50 [3]: 1.4 nM
EC50 [4]: 0.21 nM
EC50 [5]: 0.2 nM
EC50 [6]: 0.15 nM
EC50 [7]: 0.08 nM
EC50 [8]: 0.08 nM
% Competition [9]: 7%
% Competition [10]: 98%
% Competition [11]: 8%
% Competition [12]: 97%
% Competition [13]: 91%
% Competition [14]: 0%
% Competition [15]: 25%

Now those with a lower IC50 [3], led by results:

EC50 [1]: 0.08 nM
EC50 [2]: 0.09 nM
IC50 [3]: 0.6 nM
EC50 [4]: 0.18 nM
EC50 [5]: 0.22 nM
EC50 [6]: 0.17 nM
EC50 [7]: 0.08 nM
EC50 [8]: 0.09 nM
% Competition [9]: 5%
% Competition [10]: 4%
% Competition [11]: 6%
% Competition [12]: 85%
% Competition [13]: 54%
% Competition [14]: 1%
% Competition [15]: 27%
B1: reference antibody KWAR23 (antibody, V domains shown)
VH: EVQLQQSGAELVKPGASVKLSCTASGFNIKDYYIHWVQQRTEQGLEWIGRIDPEDGETKYAPKFQDKATITADTSSNTAYLHLSSLTSEDTAVYYCARWGAYWGQGTLVTVSS
VL: QIVLTQSPAIMSASPGEKVTLTCSASSSVSSSYLYWYQQKPGSSPKLWIYSTSNLASGVPARFSGSGSGTSYSLTISSMEAEDAASYFCHQWSSYPRTFGAGTKLELK

EC50 [1]: 0.08 nM
IC50 [3]: 0.5 nM
EC50 [4]: 0.17 nM
EC50 [6]: 0.17 nM
EC50 [7]: 0.08 nM
% Competition [9]: 4%
% Competition [10]: 51%
% Competition [11]: 4%
% Competition [12]: 89%
% Competition [13]: 70%
% Competition [14]: 1%
% Competition [15]: 88%
B4: reference antibody HEFLB (antibody, V domains shown)
VH: EVQLVQSGAEVKKPGESLRISCKASGYSFTSYWVHWVRQMPGKGLEWMGNIDPSDSDTHYSPSFQGHVTLSVDKSISTAYLQLSSLKASDTAMYYCVRGGTGTLAYFAYWGQGTLVTVSS
VL: DVVMTQSPLSLPVTLGQPASISCRSSQSLVHSYGNTYLYWFQQRPGQSPRLLIYRVSNRFSGVPDRFSGSGSGTDFTLKISRVEAEDVGVYYCFQGTHVPYTFGGGTKVEIK

IC50 [3]: 0.2 nM
EC50 [4]: 0.02 nM
EC50 [5]: 0.04 nM
EC50 [6]: 0.03 nM
% Competition [9]: 4%
% Competition [10]: 91%
% Competition [11]: 1%
% Competition [12]: 94%
% Competition [13]: 83%
% Competition [14]: 3%
% Competition [15]: 14%
B7: Antibody 032 (hybridoma antibody) (antibody, V domains shown)
VH: B5 VH with K3R, A24V, S52T, G76D, A90P
VL: B5 VL with S14N
notes: mouse hybridoma antibody
